Earlier results on 1 substance are cited in PMC6484326.

For the data set, the target named is GPIIb-IIIa (Homo sapiens) (UniProt P08514).

Turning to fibrinogen (from UniProt P02671), the dissociation constant (Kd) (usually the constant that tells how readily two partners part at equilibrium) was 0.1 µM.
